Target: ubiquitin tagged Ac-AChBP (Aplysia californica acetylcholine binding protein) (Aplysia californica)
Experiment: SEC; analytical Superdex 200 10/300 calibrated with molecular weight standards; oligomerization state in solution

## ubiquitin tagged Ac-AChBP (Aplysia californica acetylcholine binding protein) (natural protein)
  stoichiometry N: 5
